These results are taken from patent US20120322150A1 (CARNEGIE INSTITUTION OF WASHINGTON, published 2012).

The target of experiment [1] is T1, MBP-BSU1 (Arabidopsis, UniProt Q9LR78 1-793).
T1 construct: Recombinant fusion used as probe in overlay (far-western) blots and in phosphatase assays; also called BSU1 from E. coli
As to the kind of experiment: in vitro overlay blot, MBP-BSU1 probe, anti-MBP detection. As to the method: Total protein extracts obtained from Arabidopsis plants (F1) expressing BSU1 -YFP or co-expressing BSU1-YFP and BSK1-myc were immunoprecipitated with anti-myc, and the immunoblot was probed with anti-GFP and anti-myc antibody. […] GST-BSK1 or GST-BSK1 S230A was incubated with GST-BRI1-K or GST for 2 hrs. […] In the presence of BR (+BR), BR binding to the extracellular domain of BRI1 induces dissociation of BKI1 and association and inter-activation between BRI1 and BAKI. Activated BRI1 then phosphorylates BSK1, which in turn dissociates from the receptor complex and interacts with and presumably activate BSU1. BSU1 inactivates BIN2 by dephosphorylating its pTyr200, allowing accumulation of unphosphorylated BZR1/2, likely with help of a phosphatase that is yet to be identified. Unphosphorylated BZR1/2 accumulate in the nucleus and alter the expression of BR-target genes, leading to cellular and developmental responses. While individual representative protein is shown for each function, in Arabidopsis most of these components have about 2 to 5 homologous proteins (paralogs) that can contribute to the same or similar signaling function.
To test interaction of BSU1 with BIN2 or bin2-1 in vitro, a gel blot separating GST, GST-BIN2, GSTbin2-1 was incubated with 20 μg MBP-BSU1 in 5% non-fat dry milk/PBS buffer and washed four times. The blot was then probed with a polyclonal anti-MBP antibody. […]

The target of experiment [2] is T1, MBP-BSU1. The experiment can be described thus: overlay blot: GST fusions on membrane probed with MBP-BSU1 and anti-MBP antibody. As to the method:
To test interaction of BSU1 with BIN2 or bin2-1 in vitro, a gel blot separating GST, GST-BIN2, GSTbin2-1 was incubated with 20 μg MBP-BSU1 in 5% non-fat dry milk/PBS buffer and washed four times. The blot was then probed with a polyclonal anti-MBP antibody. In the case of BSU1 overlay to BSK1, GST-BRI1-K, GST-BAK1-K and GST-BSK1 were separated by SDS-PAGE. To prepare phosphorylated BSK1, GST-BSK1 was incubated with GST-BRI1-K and 100 μM ATP in the kinase buffer for 2 hrs before SDS-PAGE. The blot was sequentially probed with MBP-BSU1 and a monoclonal anti-MBP antibody (New England Biolab, Beverly, Mass.).

The target of experiment [3] is T2, BSL1 fused C-terminal half (cYFP) of yellow fluorescence protein (Arabidopsis, UniProt Q8L7U5 1-881).
T2 construct: BiFC construct; also called BSL1-cYFP; not shown: C-terminal half of YFP (cYFP)
T2 sequence: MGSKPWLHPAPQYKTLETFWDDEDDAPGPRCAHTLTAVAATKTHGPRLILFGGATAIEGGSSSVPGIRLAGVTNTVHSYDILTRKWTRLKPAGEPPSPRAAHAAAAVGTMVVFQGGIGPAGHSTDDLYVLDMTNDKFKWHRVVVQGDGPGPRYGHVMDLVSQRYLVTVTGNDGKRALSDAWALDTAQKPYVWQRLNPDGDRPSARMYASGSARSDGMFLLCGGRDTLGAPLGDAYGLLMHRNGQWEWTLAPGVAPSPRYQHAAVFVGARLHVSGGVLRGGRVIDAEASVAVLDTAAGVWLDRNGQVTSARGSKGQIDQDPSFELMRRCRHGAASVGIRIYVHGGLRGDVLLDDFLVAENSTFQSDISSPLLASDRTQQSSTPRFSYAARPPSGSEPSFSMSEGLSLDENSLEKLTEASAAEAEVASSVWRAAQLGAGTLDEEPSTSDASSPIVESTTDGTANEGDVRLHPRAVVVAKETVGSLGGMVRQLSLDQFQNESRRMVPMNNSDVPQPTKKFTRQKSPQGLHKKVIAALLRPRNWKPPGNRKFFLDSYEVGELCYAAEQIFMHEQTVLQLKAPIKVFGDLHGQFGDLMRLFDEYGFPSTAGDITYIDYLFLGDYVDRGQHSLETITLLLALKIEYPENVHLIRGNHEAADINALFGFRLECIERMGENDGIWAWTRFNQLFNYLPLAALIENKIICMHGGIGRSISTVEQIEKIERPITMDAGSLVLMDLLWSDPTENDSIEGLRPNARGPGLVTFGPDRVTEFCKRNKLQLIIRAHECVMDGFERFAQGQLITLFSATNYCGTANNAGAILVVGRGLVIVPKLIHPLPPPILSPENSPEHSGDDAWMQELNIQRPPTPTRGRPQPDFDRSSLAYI
As to the kind of experiment: BiFC in tobacco cells. The text has this: (§1) GST, GST-BIN2 and GST-bin2-1 were separated by SDS-PAGE and blotted onto nitrocellulose membrane. The blot was probed sequentially with MBP-BSU1 and anti-MBP antibody (upper) and then stained with Ponceau S (lower). […] The protein extracts of the tobacco leaves transiently transformed with the indicated constructs were immunoprecipitated with anti-GFP antibody, and the immunoblot was probed with anti-myc and anti-GFP antibody. […] The indicated constructs were transformed into tobacco leaf epidermal cells. Bright spots in BIN2-nYFP+cYFP are chloroplast auto-fluorescence. […] Arabidopsis plants (F1) expressing BSU1-YFP or co-expressing BSU1-YFP and BIN2-myc were grown on the medium containing BR biosynthetic inhibitor, brassinazole (BRZ), for 10 days. The plants were treated with 10 μM MG-132 for 1 hr and then with 0.2 μM BL or mock solution for 15 min. Total protein extracts were immunoprecipitated with anti-myc antibodies, and the immunoblot was probed with anti-GFP and anti-myc antibodies.
(§2) Transformation by Agrobacterium infiltration, observations of subcellular localization and BiFC signal in tobacco or Arabidopsis were performed as described previously 5. Fluorescence of YFP was visualized by using a spinning-disk confocal microscope (Leica Microsystems, Heerbruag, Germany).

The target of experiment [4] is T3, BSU1 fused to C-terminal half (cYFP) of YFP (Arabidopsis, UniProt Q9LR78 1-793).
T3 construct: BiFC construct in tobacco leaf epidermal cells, with BIN2-nYFP or bin2-1-nYFP; also called BSU1-cYFP; not shown: C-terminal half of YFP (cYFP)
T3 sequence (Q9LR78 whole entry, the tested form may be a part): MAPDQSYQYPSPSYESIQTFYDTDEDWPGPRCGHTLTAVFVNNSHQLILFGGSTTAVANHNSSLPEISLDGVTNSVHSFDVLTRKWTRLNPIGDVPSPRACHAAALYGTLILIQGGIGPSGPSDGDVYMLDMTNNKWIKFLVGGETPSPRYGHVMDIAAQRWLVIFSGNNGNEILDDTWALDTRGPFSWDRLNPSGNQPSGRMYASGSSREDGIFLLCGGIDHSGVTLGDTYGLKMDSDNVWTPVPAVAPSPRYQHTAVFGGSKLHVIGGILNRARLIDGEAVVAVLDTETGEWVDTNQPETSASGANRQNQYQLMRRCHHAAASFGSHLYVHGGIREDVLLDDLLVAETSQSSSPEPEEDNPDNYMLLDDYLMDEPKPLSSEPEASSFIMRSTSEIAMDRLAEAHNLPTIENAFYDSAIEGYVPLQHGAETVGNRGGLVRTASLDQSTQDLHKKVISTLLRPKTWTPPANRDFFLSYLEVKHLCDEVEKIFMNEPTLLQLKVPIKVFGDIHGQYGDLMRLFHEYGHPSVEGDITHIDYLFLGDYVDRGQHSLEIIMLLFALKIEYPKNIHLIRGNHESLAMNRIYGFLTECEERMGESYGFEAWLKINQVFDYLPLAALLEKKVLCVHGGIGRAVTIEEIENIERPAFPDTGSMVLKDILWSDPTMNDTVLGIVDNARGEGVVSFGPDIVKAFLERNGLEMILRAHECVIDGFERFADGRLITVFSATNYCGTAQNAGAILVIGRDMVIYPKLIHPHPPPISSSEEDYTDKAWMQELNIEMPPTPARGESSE
The experiment can be described thus: BiFC in tobacco cells.
Excerpt: as §1, §2

T1 sequence (Q9LR78 whole entry, the tested form may be a part): as above

B1: GST-BRI1-K (receptor, Arabidopsis, UniProt O22476 815-1196, looked up)
chain: REMRKRRRKKEAELEMYAEGHGNSGDRTANNTNWKLTGVKEALSINLAAFEKPLRKLTFADLLQATNGFHNDSLIGSGGFGDVYKAILKDGSAVAIKKLIHVSGQGDREFMAEMETIGKIKHRNLVPLLGYCKVGDERLLVYEFMKYGSLEDVLHDPKKAGVKLNWSTRRKIAIGSARGLAFLHHNCSPHIIHRDMKSSNVLLDENLEARVSDFGMARLMSAMDTHLSVSTLAGTPGYVPPEYYQSFRCSTKGDVYSYGVVLLELLTGKRPTDSPDFGDNNLVGWVKQHAKLRISDVFDPELMKEDPALEIELLQHLKVAVACLDDRAWRRPTMVQVMAMFKEIQAGSGIDSQSTIRSIEDGGFSTIEMVDMSIKEVPEGKL
notes: domain: kinase domain; also called GST BR11-K; kinase domain of BRI1; not shown: GST (glutathione S-transferase) tag
For B1, the binding result with MBP-BSU1 [1] was “no binding”.

B2: GST-BAK1-K (receptor, Arabidopsis, UniProt Q94F62 247-615, looked up)
chain: AWWRRKKPQDHFFDVPAEEDPEVHLGQLKRFSLRELQVASDNFSNKNILGRGGFGKVYKGRLADGTLVAVKRLKEERTQGGELQFQTEVEMISMAVHRNLLRLRGFCMTPTERLLVYPYMANGSVASCLRERPESQPPLDWPKRQRIALGSARGLAYLHDHCDPKIIHRDVKAANILLDEEFEAVVGDFGLAKLMDYKDTHVTTAVRGTIGHIAPEYLSTGKSSEKTDVFGYGVMLLELITGQRAFDLARLANDDDVMLLDWVKGLLKEKKLEALVDVDLQGNYKDEEVEQLIQVALLCTQSSPMERPKMSEVVRMLEGDGLAERWEEWQKEEMFRQDFNYPTHHPAVSGWIIGDSTSQIENEYPSGPR
notes: domain: kinase domain; also called kinase domain of BAK1; not shown: GST (glutathione S-transferase) tag
Consider B2, for which the binding result with MBP-BSU1 [1] was “no binding”.

B3: GST-BIN2 (enzyme, Arabidopsis, UniProt Q39011 1-380, looked up)
chain: MADDKEMPAAVVDGHDQVTGHIISTTIGGKNGEPKQTISYMAERVVGTGSFGIVFQAKCLETGETVAIKKVLQDRRYKNRELQLMRVMDHPNVVCLKHCFFSTTSKDELFLNLVMEYVPESLYRVLKHYSSANQRMPLVYVKLYMYQIFRGLAYIHNVAGVCHRDLKPQNLLVDPLTHQVKICDFGSAKQLVKGEANISYICSRFYRAPELIFGATEYTTSIDIWSAGCVLAELLLGQPLFPGENAVDQLVEIIKVLGTPTREEIRCMNPHYTDFRFPQIKAHPWHKIFHKRMPPEAIDFASRLLQYSPSLRCTALEACAHPFFDELREPNARLPNGRPFPPLFNFKQEVAGSSPELVNKLIPDHIKRQLGLSFLNQSGT
modifications: phospho-tyrosine 200 (autophosphorylation site of BIN2, detected on GST-BIN2 from E. coli)
notes: Expressed and purified from E. coli; also called wild type GST-BIN2; not shown: GST (glutathione S-transferase) tag
For the molecule B3, in the experiment with MBP-BSU1 [2], the binding result is “binds”.

B4: BIN2 fused to the N-terminal half (nYFP) of YFP (enzyme, Arabidopsis, UniProt Q39011 1-380, looked up)
chain: MADDKEMPAAVVDGHDQVTGHIISTTIGGKNGEPKQTISYMAERVVGTGSFGIVFQAKCLETGETVAIKKVLQDRRYKNRELQLMRVMDHPNVVCLKHCFFSTTSKDELFLNLVMEYVPESLYRVLKHYSSANQRMPLVYVKLYMYQIFRGLAYIHNVAGVCHRDLKPQNLLVDPLTHQVKICDFGSAKQLVKGEANISYICSRFYRAPELIFGATEYTTSIDIWSAGCVLAELLLGQPLFPGENAVDQLVEIIKVLGTPTREEIRCMNPHYTDFRFPQIKAHPWHKIFHKRMPPEAIDFASRLLQYSPSLRCTALEACAHPFFDELREPNARLPNGRPFPPLFNFKQEVAGSSPELVNKLIPDHIKRQLGLSFLNQSGT
notes: BiFC construct in tobacco cells; also called BIN2-nYFP; not shown: N-terminal half of YFP (nYFP)
B4: the binding result in experiment [3] and in experiment [4] was “binds” throughout.

B5: GST-BSK1 (enzyme, Arabidopsis, UniProt Q944A7 1-512, looked up)
chain: MGCCQSLFSGDNPLGKDGVQPQPLSQNNHGGATTADNGGSGGASGVGGGGGGGGIPSFSEFSFADLKAATNNFSSDNIVSESGEKAPNLVYKGRLQNRRWIAVKKFTKMAWPEPKQFAEEAWGVGKLRHNRLANLIGYCCDGDERLLVAEFMPNDTLAKHLFHWENQTIEWAMRLRVGYYIAEALDYCSTEGRPLYHDLNAYRVLFDEDGDPRLSCFGLMKNSRDGKSYSTNLAYTPPEYLRNGRVTPESVTYSFGTVLLDLLSGKHIPPSHALDMIRGKNIILLMDSHLEGKFSTEEATVVVELASQCLQYEPRERPNTKDLVATLAPLQTKSDVPSYVMLGIKKQEEAPSTPQRPLSPLGEACSRMDLTAIHQILVMTHYRDDEGTNELSFQEWTQQMKDMLDARKRGDQSFREKDFKTAIDCYSQFIDVGTMVSPTVFGRRSLCYLLCDQPDAALRDAMQAQCVYPDWPTAFYMQSVALAKLNMNTDAADMLNEAAQLEEKRQRGGRGS
notes: also called full-length BSK1; not shown: GST (glutathione S-transferase) tag
On to B5, for which the binding result with MBP-BSU1 [2] is “binds”.
